Test [1] concerns the target T1, Myc-CUL3 (Arabidopsis thaliana, UniProt Q9ZVH4 1-732).
T1 construct: also called AtCUL3A (AT1G26830); not shown: N-terminal Myc tag (pEG203)
T1 sequence (looked up): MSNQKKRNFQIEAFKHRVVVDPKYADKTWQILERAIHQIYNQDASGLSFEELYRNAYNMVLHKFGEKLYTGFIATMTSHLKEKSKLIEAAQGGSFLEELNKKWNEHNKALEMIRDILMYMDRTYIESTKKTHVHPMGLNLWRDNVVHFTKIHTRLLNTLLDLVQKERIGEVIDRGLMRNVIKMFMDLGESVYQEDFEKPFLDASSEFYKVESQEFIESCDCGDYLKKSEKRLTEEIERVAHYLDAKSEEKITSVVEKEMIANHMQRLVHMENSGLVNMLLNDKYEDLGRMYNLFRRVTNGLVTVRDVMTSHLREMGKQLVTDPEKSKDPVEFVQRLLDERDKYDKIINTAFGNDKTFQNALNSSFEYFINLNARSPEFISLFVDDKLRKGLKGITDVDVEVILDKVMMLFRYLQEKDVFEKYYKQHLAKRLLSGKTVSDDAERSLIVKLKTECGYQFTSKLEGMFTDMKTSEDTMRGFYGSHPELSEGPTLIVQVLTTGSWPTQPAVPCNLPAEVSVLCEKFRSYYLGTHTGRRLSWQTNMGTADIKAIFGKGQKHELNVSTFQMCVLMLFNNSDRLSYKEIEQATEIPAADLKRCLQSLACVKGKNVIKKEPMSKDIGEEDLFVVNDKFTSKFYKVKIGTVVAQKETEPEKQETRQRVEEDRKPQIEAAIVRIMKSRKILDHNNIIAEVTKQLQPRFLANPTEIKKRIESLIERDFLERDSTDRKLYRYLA
In words: co-IP, co-expression in N. benthamiana, 1 mM SA.

In test [2] the test system is Psm ES4326/AvrRpt2-mediated cell death. In words: Cell death (conductivity/electrolyte leakage, trypan blue) after Psm ES4326/AvrRpt2 inoculation. The test is classed as in vivo, Arabidopsis thaliana. The conditions noted are these: transgenic plants expressing the mutant in npr1-2 background; 1 mM SA 24 hr before inoculation. Here is the method: Chemical treatment, pathogen infection and cell death assays. […] At 2 days, the bacterial colonies were scored.
Trypan blue staining. Leaves of three-week-old Arabidopsis infected with Psm ES4326/AvrRpt2 were sampled at 1 dpi, boiled in 95% ethanol until completely bleached, followed by boiling for 3 min in a 1:1 mixture of 95% ethanol and staining solution (10 ml lactic acid, 10 ml glycerol, 10 g phenol and 10 mg trypan blue, dissolved in 10 ml DDW). The leaves were then de-stained in 2.5 g/ml chloral hydrate solution and transferred to 70% glycerol for subsequent imaging.

Test [3] relates to cytoplasmic condensates (SINCs). Briefly: Confocal imaging of localization and condensate (body) formation of GFP-fused NPR proteins and variants. The format is cell-based, Nicotiana benthamiana. Here is the method: (§1) Plant transformation: For plant transformations, the Agrobacterium tumefaciens strain GV3101 was transformed with plant binary vectors carrying the indicated transgenes. For stable expression in Arabidopsis, a floral dipping method was used. For transient expression in N benthamiana, the Agrobacterium carrying the indicated construct was cultured overnight at 28° C. in Luria-Bertani (LB) broth medium supplemented with appropriate antibiotics: spectinomycin (100 μg/ml), kanamycin (50 μg/ml), gentamycin (50 μg/ml), and rifampicin (25 μg/ml). The obtained culture was re-inoculated at 1:10 into fresh growth media with antibiotics and grown for another 4 hr. Cells were then spun down at 1,600 g for 10 min, and inoculum was prepared by resuspending cells to OD600 nm=1 in double distilled water (DDW) containing 200 μM acetosyringone (Sigma). Unless otherwise stated, for co-IP, co-localization, and BiFC assays in N. benthamiana, the proteins were co-expressed at 1:1 mixture of the relevant Agrobacteria inoculums. In all BiFC assays, the pair of YN/YC fusions was co-expressed together with free mCherry to mark the cytoplasm and nucleus, mCherry-NLS to mark the nucleus only, or mCherry-fused test proteins for co-localization analysis. The inoculum was pressure infiltrated into N. benthamiana leaves at the abaxial side using 1 ml syringe without the needle. Due to low overall levels of NPR1-GFP in transgenic plants, a transient expression assay in Arabidopsis seedlings was used to monitor NPR1-GFP subcellular localization after SA treatment (FIG. 2B). To limit the imaging time in this transient assay (2 hours), a higher baseline SA concentration had to be used. Seeds of WT (Col-0) Arabidopsis were germinated on solid half-strength Murashige and Skoog (1/2 MS) medium and grown for 4 days. Agrobacterium carrying the indicated constructs was grown overnight in LB medium supplemented with appropriate antibiotics. The obtained culture was re-inoculated at 1:10 into virulence induction medium [50.78 mM MES, 0.5% Glucose, 1.734 mM NaH2PO4, 5% of 20X-AB mix (373.9 mM NH4C1, 24.34 mM MgSO4, 40.23 mM KCl, 1.36 mM CaCl2 and 0.18 mM FeSO4·7H2O), 200 μM acetosyringone] supplemented with 25 μg/ml rifampicin and grown for another 24 hr at 28° C. to OD600=0.8 (inoculum). Seedlings were vacuum-infiltrated with the inoculum, and at 48 hpi (hours post inoculation), treatments were performed by submerging the transformed seedlings in water or SA solution at indicated concentrations for 2 hr. Entire cotyledons were sampled for microscopy.
Confocal laser scanning microscopy. Unless otherwise indicated, all imaging data and micrographs for single protein imaging, co-localizations, BiFC and time-lapse were obtained from the transient expression in N. benthamiana using the relevant Agrobacteria strains. All imaging was done with confocal laser scanning fluorescence microscopy using Zeiss 880 airyscan inverted confocal microscope with a 40×/1.2 water correction objective. GFP (eGFP) was excited with a 488 nm argon laser and emission was collected with a 505-530 nm band pass filter. YFP was excited with an argon laser using a 514 nm beam splitter, and emission was detected with a 520-555 nm band pass filter. mCherry was excited with a 561 nm diode laser, and emission was detected with a 575-615 nm band pass filter. When eGFP/YFP were imaged together with mCherry, a spectral GASP detector was used to collect emission from eGFP/YFP. Propidium iodide (PI) was excited with 488 nm argon laser and emission was detected with a 590-620 nm band pass filter. Time-lapse imaging was carried out on live leaf tissue samples from N. benthamiana plants transiently expressing the protein of interest. Image acquisition was done in 5 min intervals for the duration of 2 hr by scanning 30 consecutive focal planes along the Z-axis covering the entire thickness of an epidermal cell. Z-projection was done to each time frame stack before composing a final time-lapse file. […]

A further test concerns PR1 promoter. Briefly: PR1 promoter activity, dual luciferase assay. The test is classed as cell-based, Nicotiana benthamiana. The conditions noted are these: 2 mM SA for 24 hr. An excerpt:
PR1 promoter activity and dual luciferase assay. For promoter transactivation assays, the PR1 promoter reporter (pPR1:DUAL-LUC) was transiently co-expressed in N. benthamiana together with free HA, or HA-fused WT NPR1 or npr1 mutants (effectors) followed by treatment with SA at 1 dpi. At 2 dpi (24 hr after SA treatment), leaf discs were collected, ground in liquid nitrogen, and lysed with the PLB buffer of the Dual-Luciferase Reporter Assay System (Promega, E1910). Lysate was spun down at 12,000 g for 1 min, and 10 μl was taken for measuring FLUC and RLUC activities according to manufacturer's instructions using a Victor3 plate reader (PerkinElmer). At 25° C., substrates for FLUC and RLUC were added using the automatic injector and after 3 s shaking and 3 s delay, the signals were captured for 3 s and recorded as counts per second. To obtain the PR1 promoter activity, the ratio of F-LUC and R-LUC activities was calculated for each effector and plotted relative to that of free HA.

A further test deals with CUL3. In words: Co-IP of Myc-CUL3 with HA-fused NPR1 or variants. The test is classed as binding, Arabidopsis thaliana. The conditions noted are these: 1 mM SA for 5 hr. Here is the method: as §1
Protein analysis and IP. Recombinant protein analysis was performed using transient expression in N. benthamiana, or stable over-expression in transgenic Arabidopsis, or expression in E. coli. Total protein extraction from plants was performed by homogenizing leaf tissue in the plant extraction buffer [50 mM Tris-HCl (pH 7.5), 150 mM NaCl, 5 mM EDTA, 0.2% Triton X-100, 0.2% Nonidet P-40] supplemented with 1 mM PMSF, 100 μM MG132, and EDTA-free protease inhibitor cocktail (Roche). For ubiquitinated protein analysis in plants, 100 μM of DUB (deubiquitinase) inhibitor (LifeSensors) and 10 mM NEM were added. Next, the lysates were cleared by centrifugation at 14,000 rpm for 15 min followed by filtering through a 0.2 μm filter. […] Pull-downs or IP experiments were done on total protein extracts by incubating protein samples in the lysis buffer overnight with indicated affinity tag or antibody conjugated to agarose or magnetic beads: GFP-trap agarose beads (Chromotek) for GFP fusions; RFP-trap agarose beads (Chromotek) for mCherry fusions; anti-HA magnetic beads (ThermoFisher) for HA tag fusions; anti-DYKDDDDK coupled magnetic agarose (ThermoFisher) for FLAG tag fusions; and glutathione magnetic agarose (ThermoFisher) for GST fusions. Unless otherwise indicated, after pull-down/IP, beads were washed 3 times and proteins were eluted by boiling in the 2×SDS sample buffer. […]

Test [4] addresses T1, Myc-CUL3. Briefly: co-IP, N. benthamiana, 1 mM SA 5 hr.
Test [5] deals with T1, Myc-CUL3. Briefly: pull-down, N. benthamiana, SA dose response.

Experimental findings from patent US20230227838A1, “ENHANCED CELL SURVIVAL AGAINST BIOTIC AND ABIOTIC STRESSES THROUGH SALICYLICK ACID-INDUCED NPR1 CONDENSATES” (priority 2020, published 2023) are described below.

Numbering of substitutions follows the chain as printed.

B1: NPR1-HA (other)
chain: MDTTIDGFADSYEISSTSFVATDNTDSSIVYLAAEQVLTGPDVSALQLLSNSFESVFDSPDDFYSDAKLVLSDGREVSFHRCVLSARSSFFKSALAAAKKEKDSNNTAAVKLELKEIAKDYEVGFDSVVTVLAYVYSSRVRPPPKGVSECADENCCHVACRPAVDFMLEVLYLAFIFKIPELITLYQRHLLDVVDKVVIEDTLVILKLANICGKACMKLLDRCKEIIVKSNVDMVSLEKSLPEELVKEIIDRRKELGLEVPKVKKHVSNVHKALDSDDIELVKLLLKEDHTNLDDACALHFAVAYCNVKTATDLLKLDLADVNHRNPRGYTVLHVAAMRKEPQLILSLLEKGASASEATLEGRTALMIAKQATMAVECNNIPEQCKHSLKGRLCVEILEQEDKREQIPRDVPPSFAVAADELKMTLLDLENRVALAQRLFPTEAQAAMEIAEMKGTCEFIVTSLEPDRLTGTKRTSPGVKIAPFRILEEHQSRLKALSKTVELGKRFFPRCSAVLDQIMNCEDLTQLACGEDDTAEKRLQKKQRYMEIQETLKKAFSEDNLELGNSSLTDSTSSTSKSTGGKRSNRKLSHRRR
notes: Full-length wild-type NPR1, transiently expressed in N. benthamiana; also called HA-fused NPR1; WT NPR1; not shown: C-terminal HA tag (pLN462)
On to B1, for which the binding result with Myc-CUL3 [1] is on record as “binds”.

B2: rdr3: NPR1 with cysteine cluster of RDR3 mutated (C511/521/529A) (protein)
chain: B1 chain with C511A, C521A, C529A
modifications: A. thaliana npr1 rdr3 protein
In the case of B2, the “protection against cell death induced by Psm ES4326/AvrRpt2 (SA-mediated survival phenotype)” value in test [2] is “partially compromised the protection against cell death”. The “SA-induced cytoplasmic body/condensate (SINC) formation” value in test [3] (5 mM SA for 2 hr) is “completely abolished the SA-induced condensation in both cytoplasm and nucleus”. Besides, the “nuclear accumulation (nuclear-cytoplasmic partitioning)” value in test [3] (absence of SA, compared to WT) was “increased nuclear accumulation”. For the same molecule, the “condensate formation in the absence of SA (constitutive)” value in test [3] (no SA treatment / mock) is “no effect on protein state in untreated cells”. The “transcriptional co-activation function (PR1 promoter transactivation)” value with PR1 promoter was “reduced transcriptional co-activation function”. Moreover, the “CUL3 pull-down signal in co-IP” value in the test with CUL3 is reported as “little interaction”.

B3: rdr2-HA (other)
chain: B1 chain with C378A, C385A, C394A
notes: not shown: C-terminal HA tag (pLN462)
As to B3, the binding result in the test with Myc-CUL3 [4] is listed as “binds”.

B4: sim3-HA (other)
chain: B1 chain with I345A, L346A, L348A
notes: SUMOylation-deficient mutant of NPR1; also called npr1sim3; HA-fused sim3; not shown: C-terminal HA tag (pLN462)
With B4, the binding result in the test with Myc-CUL3 [5] was “binds”.

B5: rdr1-HA (other)
chain: B1 chain with C150A, C155A, C156A, C160A
notes: as for B3
For B5, in the test with Myc-CUL3 [4], the binding result was “binds”.
